Data as given in patent publication US10588972B2, “Phthalocyanine probes and uses thereof” (LI-COR, INC., priority 2014, dated 2020).

Assays:
Format in all cases: cell-based
A431 cells [1] = test: Cytotoxicity and localization of antibody probe versus small protein ligand probe after irradiation (Example 4)
Protocol: Both probes can bind EGFR and had approximately 2 dye molecule per conjugate molecule. It was assumed that the affinity for the receptor will be different for the antibody (generally pM), compared to the small protein (nM). Although the probe doses were different, the incubation times were the same at only 10 min. After incubation, the probes were rinsed from the cells. FIGS. 7A and 7B illustrates A431 cells that were incubated with IRDye 700DX-panitumumab or IRDye 700DX-EGF, respectively and thereafter irradiated.
Thus, upon irradiation, the production of singlet oxygen occurred at the cell surface. Typically, the EGF ligand is internalized after binding the EGF receptor.

A431 cells [2] = test: VB-48 assay: vitality, viability and necrosis of treatments 1-10 (Table 3); details: irradiated (I) 32 J/cm^2; RGD 0.5 μM, EGF 0.5 μM, NHSe 5 μM, Pan ~0.1 μM
Protocol: Briefly, A431 cells were labeled with respective probes for specific treatments (listed below); cells were rinsed and evaluated for labeling. The test include the following treatments: […], treatments 3-4 of EGF-IRDye® 700DX at 0.5 μM and radiation, treatments 5-6 of IRDye® 700DX NHSe at 5 μM and radiation, treatments 7-8 of panitumumab-IRDye® 700DX at about 0.1 μM and radiation, treatment 9 of a negative control with no probe and no irradiation, and treatment 10 of RGD-IRDye® 700DX and no irradiation. The probes were incubated for about 10 minutes and with a longer period of about 20 minutes for the RGD probe. The cells were monitored with microscopy and morphology was examination 24 hours post treatment.
Low binding was expected for the RGD probe due to the low level of integrin receptors on A431 cells. […] By 3 hours post-irradiation all treatments except RGD (Treatment 1) show significant cytotoxicity. Vitality, viability and necrosis assays such as a VB-48 assay and JC-1 assay were performed.

HTB-186 cells = test: Caspase 3/7 assay (Example 10, Table 8); details: 32 J/cm^2, probe about 5 hours, 20 hours post irradiation; 700DX-RGD and 700DX-EGF 500 nM
Protocol: This example illustrates the ability of IRDye® 700DX small molecule conjugates to induce apoptosis in cells, e.g., cancer cells. In this study HTB-186 cells (a desmoplastic cerebellar medulloblastoma cell line) were treated with IRDye® 700DX small molecule conjugates (IRDye® 700DX labeled chlorotoxin, anti-EGFR Affibody®, RGD peptide and EGF ligand). Apoptosis was measured by evaluating caspase 3/7 activity and mitochondrial membrane potential. […]
The caspase 3/7 assay was used to measure caspase 3/7 activity in the cells from the treatments listed above. […] Upon activation, the caspases cleave the substrate, and in turn, a fluorescence signal is emitted. […] The fluorescence can be detected by, for example, flow cytometry, fluorescence microscopy, and fluorescence-based image cytometry.
To determine whether the treated cells are undergoing apoptosis, a caspase 3/7 assay and mitochondrial potential assay were performed. […] Table 8 below provides cells number, % viability, JC-1% shift, and % late apoptotic and dead cells as determined by caspase 3/7 assay.

B1: 700DX-EGF (conjugate, UniProt P01133 23-1207, looked up)
Pro-epidermal growth factor: PQHWSCPEGTLAGNGNSTCVGPAPFLIFSHGNSIFRIDTEGTNYEQLVVDAGVSVIMDFHYNEKRIYWVDLERQLLQRVFLNGSRQERVCNIEKNVSGMAINWINEEVIWSNQQEGIITVTDMKGNNSHILLSALKYPANVAVDPVERFIFWSSEVAGSLYRADLDGVGVKALLETSEKITAVSLDVLDKRLFWIQYNREGSNSLICSCDYDGGSVHISKHPTQHNLFAMSLFGDRIFYSTWKMKTIWIANKHTGKDMVRINLHSSFVPLGELKVVHPLAQPKAEDDTWEPEQKLCKLRKGNCSSTVCGQDLQSHLCMCAEGYALSRDRKYCEDVNECAFWNHGCTLGCKNTPGSYYCTCPVGFVLLPDGKRCHQLVSCPRNVSECSHDCVLTSEGPLCFCPEGSVLERDGKTCSGCSSPDNGGCSQLCVPLSPVSWECDCFPGYDLQLDEKSCAASGPQPFLLFANSQDIRHMHFDGTDYGTLLSQQMGMVYALDHDPVENKIYFAHTALKWIERANMDGSQRERLIEEGVDVPEGLAVDWIGRRFYWTDRGKSLIGRSDLNGKRSKIITKENISQPRGIAVHPMAKRLFWTDTGINPRIESSSLQGLGRLVIASSDLIWPSGITIDFLTDKLYWCDAKQSVIEMANLDGSKRRRLTQNDVGHPFAVAVFEDYVWFSDWAMPSVMRVNKRTGKDRVRLQGSMLKPSSLVVVHPLAKPGADPCLYQNGGCEHICKKRLGTAWCSCREGFMKASDGKTCLALDGHQLLAGGEVDLKNQVTPLDILSKTRVSEDNITESQHMLVAEIMVSDQDDCAPVGCSMYARCISEGEDATCQCLKGFAGDGKLCSDIDECEMGVPVCPPASSKCINTEGGYVCRCSEGYQGDGIHCLDIDECQLGEHSCGENASCTNTEGGYTCMCAGRLSEPGLICPDSTPPPHLREDDHHYSVRNSDSECPLSHDGYCLHDGVCMYIEALDKYACNCVVGYIGERCQYRDLKWWELRHAGHGQQQKVIVVAVCVVVLVMLLLLSLWGAHYYRTQKLLSKNPKNPYEESSRDVRSRRPADTEDGMSSCPQPWFVVIKEHQDLKNGGQPVAGEDGQAADGSMQPTSWRQEPQLCGMGTEQGCWIPVSSDKGSCPQVMERSFHMPSYGTQTLEGGVEKPHSLLSANPLWQQRALDPPHQMELTQ
modifications: Pro-epidermal growth factor IRDye 700DX conjugate
A431 cells [1]; 10 min incubation, panitumumab probe about 0.1 μM, EGF probe 0.5 μM, 24 hours post irradiation
  dead irradiated cells: 36%
A431 cells [1]; irradiation 24 J/cm^2 (figure legend)
  necrotic cells after irradiation: 36%
A431 cells [2]
  % Healthy: 60%
  % Necrotic: 20%
  Cells/mL: 3.4 × 10^5 Cells/mL
  Est % Viability: 60-70%
  Low % Vitality: 19%
HTB-186 cells
  Caspase 3 % late apoptotic + dead cells: 46%
